Target: Exoc7-sfGFP (mouse, endogenously tagged) (mouse (endogenous in normal murine mammary gland cells)) (UniProt O35250)
Assay: co-IP

UniProt O35250, sequence (O35250 whole entry): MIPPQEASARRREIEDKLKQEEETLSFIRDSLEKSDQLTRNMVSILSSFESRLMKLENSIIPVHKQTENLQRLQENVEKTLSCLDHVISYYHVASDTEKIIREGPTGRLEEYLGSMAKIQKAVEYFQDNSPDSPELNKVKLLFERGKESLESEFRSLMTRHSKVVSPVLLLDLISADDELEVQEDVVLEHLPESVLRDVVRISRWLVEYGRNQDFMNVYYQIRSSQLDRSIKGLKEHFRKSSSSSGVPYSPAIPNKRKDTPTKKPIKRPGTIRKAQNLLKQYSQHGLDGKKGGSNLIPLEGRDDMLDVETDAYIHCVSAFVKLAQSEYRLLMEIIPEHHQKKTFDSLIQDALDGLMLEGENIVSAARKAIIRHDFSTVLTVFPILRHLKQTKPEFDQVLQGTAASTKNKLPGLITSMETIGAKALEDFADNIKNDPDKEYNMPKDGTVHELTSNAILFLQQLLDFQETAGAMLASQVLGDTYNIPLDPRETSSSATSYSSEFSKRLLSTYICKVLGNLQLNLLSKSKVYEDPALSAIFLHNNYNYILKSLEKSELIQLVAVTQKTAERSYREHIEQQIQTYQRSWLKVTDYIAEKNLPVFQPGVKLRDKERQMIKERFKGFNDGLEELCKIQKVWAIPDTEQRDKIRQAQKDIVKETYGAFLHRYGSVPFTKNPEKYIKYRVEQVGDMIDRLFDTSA

- percent coprecipitated with Exoc7-GFP: 53%
Substance: Exoc2 truncated, ~48-kD N-terminal fragment (mouse) (domain or fragment)

Source: article PMC7537385
